Values quoted from earlier work as cited in paper doi:10.1101/2020.02.03.932012.

How the values were obtained:
Assay in all cases: stability
Conditions in all cases: single buried-residue variants, ligand-free as far as stated
[1] = molecular target: Glu62 (UniProt position 144, EASAFEKKMVE)
[2] = molecular target: Lys62 (UniProt position 144, EASAFKKKMVE)
[3] = molecular target: Glu66 (UniProt position 148, FTKKMEENAKK)
[4] = molecular target: Lys66 (UniProt position 148, FTKKMKENAKK)

For “Staphylococcal nuclease Delta+PHS T62E (Staphylococcus aureus; G50F;V51N;P117G;H124L;S128A;del44-49;T62E)”, the pKa [1] is listed as 7.7.
In the case of “Staphylococcal nuclease Delta+PHS T62K (Staphylococcus aureus; G50F;V51N;P117G;H124L;S128A;del44-49;T62K)”, the pKa [2] is given as 8.1.
For “Staphylococcal nuclease Delta+PHS V66E (Staphylococcus aureus; G50F;V51N;P117G;H124L;S128A;del44-49;V66E)”, the pKa [3] is given as 8.5.
In the case of “Staphylococcal nuclease Delta+PHS V66K (Staphylococcus aureus; G50F;V51N;P117G;H124L;S128A;del44-49;V66K)”, the pKa [4] is listed as 5.7.
